The nature of this data set: self-splicing fitness, log relative to wild type (ln ratio); higher = more splicing; Tetrahymena group I intron in knt gene, E. coli kanamycin selection, DiMSum; sequences stand for … in CUCUCU…GGAGGGAAAAGUUAUCAGGCAUGCACCUGGUAGCUAGUCUUUAAACCAAUAGAUUGCAUCGGUUUAAAAGGCAAGACCGUCAAAUUGCGGGAAAGGGGUCAACAGCCGUUCAGUACCAAGUCUCAGGGGAAACUUUGAGAUGGCCUUGCAAAGGGUAUGGUAAUAAGCUGACGGACAUGGUCCUAACCACGCAGCCAAGUCCUAAGUCAACAGAUCUUCUGUUGAUAUGGAUGCAGUUCACAGACUAAAUGUCGGUCGGGGAAGAUGUAUUCUUCUCAUAAGAUAUAGUCGGACCUCUCCUUAAUGGGAGCUAGCGGAUGAAGUGAUGCAACACUGGAGCCGCUGGGAACUAAUUUGUAUGCGAAAGUAUAUUGAUUAGUUUUGGAGUACUCGUGGUCG
In short, it runs like this:
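Fitness was computed with DiMSum as the error-weighted combination of replicate fold changes, kanamycin versus none, each normalised to wild type. The library randomised all eight intron nucleotides of the P1ex region, with the intron placed in the knt kanamycin-resistance gene on pET-22b(+) in E. coli BL21(DE3). Six replicate transformations were grown overnight at 37°C or 30°C on LB agar with or without 25 μg/mL kanamycin, plus 100 μg/mL carbenicillin, 50 μM IPTG and 0.2% rhamnose. Pooled colonies were amplicon-sequenced on an Illumina HiSeq 2500.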

± gives the uncertainty stated by the source.

The values that follow come from the supplement of paper PMC7877785.

Take GUCAAGCAAUAUUACGUUGG: the “self-splicing fitness (ln)” value is, setting by setting: (30 °C) -4.53 ± 0.31; (37 °C) -3.51 ± 0.3.

In the case of GUCCAGCAAUAUUACGGUUG, the “self-splicing fitness (ln)” value is -1 ± 0.067 (30 °C) and -0.214 ± 0.091 (37 °C).

For the sequence CCCCAGCAAUAUUACGCUGC, the “self-splicing fitness (ln)” value is, setting by setting: (30 °C) -3.41 ± 0.17; (37 °C) -2.06 ± 0.23.

For the sequence GCUUAGCAAUAUUACGCAAC, the “self-splicing fitness (ln)” value (30 °C) was -2.43 ± 0.22 and the “self-splicing fitness (ln)” value (37 °C) was -0.318 ± 0.13.

Consider AUAAAGCAAUAUUACGAAGC, for which the “self-splicing fitness (ln)” value (30 °C) is -4.43 ± 0.46 and the “self-splicing fitness (ln)” value (37 °C) was -0.791 ± 0.29.

With AGUCAGCAAUAUUACGUUCG, the “self-splicing fitness (ln)” value by setting is: (30 °C) -1.9 ± 0.13; (37 °C) -1.46 ± 0.15.

Regarding CGUCAGCAAUAUUACGAGGC, the “self-splicing fitness (ln)” value (30 °C) is -4.66 ± 0.36 and the “self-splicing fitness (ln)” value (37 °C) was -3.2 ± 0.47.

Turning to GUGUAGCAAUAUUACGCUAG, the “self-splicing fitness (ln)” value was -3.53 ± 0.31 (30 °C) and -1.88 ± 0.36 (37 °C).

For the sequence AAUGAGCAAUAUUACGGGAG, the “self-splicing fitness (ln)” value reads like this: (30 °C) -2.87 ± 0.23; (37 °C) -3.53 ± 0.42.

In the case of CAGAAGCAAUAUUACGUAAC, the “self-splicing fitness (ln)” value runs as follows: (30 °C) -3.85 ± 0.27; (37 °C) -2.26 ± 0.32.

Regarding AAUAAGCAAUAUUACGAACG, the “self-splicing fitness (ln)” value runs as follows: (30 °C) -1.5 ± 0.12; (37 °C) -0.285 ± 0.17.

On to ACAAAGCAAUAUUACGUACC, for which the “self-splicing fitness (ln)” value runs as follows: (30 °C) -1.13 ± 0.1; (37 °C) -0.353 ± 0.12.

With CGGGAGCAAUAUUACGCAAA, the “self-splicing fitness (ln)” value (37 °C) is -2.01 ± 0.35.

As for AACAAGCAAUAUUACGUAUA, the “self-splicing fitness (ln)” value runs as follows: (30 °C) -2.4 ± 0.13; (37 °C) -1.59 ± 0.12.

In the case of CCACAGCAAUAUUACGGGGC, the “self-splicing fitness (ln)” value is -3.95 ± 0.14 (30 °C) and -2.43 ± 0.16 (37 °C).

In the case of ACGGAGCAAUAUUACGGAAG, the “self-splicing fitness (ln)” value was -4.44 ± 0.46 (30 °C) and -1.89 ± 0.46 (37 °C).

With GUAAAGCAAUAUUACGUAAG, the “self-splicing fitness (ln)” value reads like this: (30 °C) -1.95 ± 0.1; (37 °C) -1.2 ± 0.13.

As for UCUCAGCAAUAUUACGUAUC, the “self-splicing fitness (ln)” value was -3.5 ± 0.24 (30 °C) and -1.9 ± 0.25 (37 °C).

Consider UUAUAGCAAUAUUACGUGUA, for which the “self-splicing fitness (ln)” value is -2.46 ± 0.18 (30 °C) and -1.73 ± 0.16 (37 °C).

Consider UAGGAGCAAUAUUACGCUGG, for which the “self-splicing fitness (ln)” value is, setting by setting: (30 °C) -2.38 ± 0.43; (37 °C) -0.826 ± 0.28.

Turning to GUUGAGCAAUAUUACGGGGC, the “self-splicing fitness (ln)” value is, setting by setting: (30 °C) -2.38 ± 0.19; (37 °C) -2.84 ± 0.29.

Consider GAGCAGCAAUAUUACGAAGG, for which the “self-splicing fitness (ln)” value (37 °C) was -2.79 ± 0.34.

As to UAGAAGCAAUAUUACGGAGU, the “self-splicing fitness (ln)” value was -3.56 ± 0.15 (30 °C) and -2.1 ± 0.13 (37 °C).

For the sequence GCACAGCAAUAUUACGGCUU, the “self-splicing fitness (ln)” value is, setting by setting: (30 °C) -0.432 ± 0.054; (37 °C) -0.0629 ± 0.064.

Regarding GCAUAGCAAUAUUACGAACC, the “self-splicing fitness (ln)” value is, setting by setting: (30 °C) -1.45 ± 0.089; (37 °C) 0.452 ± 0.1.

Consider CCGUAGCAAUAUUACGUUCC, for which the “self-splicing fitness (ln)” value (30 °C) was -3.11 ± 0.47.

As to GUUUAGCAAUAUUACGUCCA, the “self-splicing fitness (ln)” value is -1.53 ± 0.24 (30 °C) and -1.18 ± 0.28 (37 °C).

On to ACGCAGCAAUAUUACGCGAG, for which the “self-splicing fitness (ln)” value by setting is: (30 °C) -2.56 ± 0.12; (37 °C) -0.987 ± 0.11.

As for GUCGAGCAAUAUUACGAAUU, the “self-splicing fitness (ln)” value runs as follows: (30 °C) -3.05 ± 0.32; (37 °C) -0.878 ± 0.19.

In the case of GACCAGCAAUAUUACGCAUU, the “self-splicing fitness (ln)” value is, setting by setting: (30 °C) -0.15 ± 0.053; (37 °C) 0.0155 ± 0.067.

Regarding UAGGAGCAAUAUUACGGGGG, for the setting “37 °C”, the “self-splicing fitness (ln)” value is -2.74 ± 0.41.

As to GCGGAGCAAUAUUACGCCGU, the “self-splicing fitness (ln)” value (30 °C) was -1.4 ± 0.28.

With GACAAGCAAUAUUACGUAAU, the “self-splicing fitness (ln)” value by setting is: (30 °C) -2.61 ± 0.088; (37 °C) -1.16 ± 0.081.

Turning to UUCAAGCAAUAUUACGUCGC, the “self-splicing fitness (ln)” value (30 °C) is -4.02 ± 0.3 and the “self-splicing fitness (ln)” value (37 °C) was -2.17 ± 0.3.

For the sequence GUGAAGCAAUAUUACGUUUA, the “self-splicing fitness (ln)” value is, setting by setting: (30 °C) -1.01 ± 0.064; (37 °C) -0.109 ± 0.11.
